Measurements: PMC5292967, “New Insights on Signal Propagation by Sensory Rhodopsin II/Transducer Complex” (Scientific Reports, 2017)
Like-named read-outs stand apart in the source and are kept apart here.

Tests used:
[1] = target: T1, NpSRII/NpHtrII1-157 complex (sensory rhodopsin II with its cognate transducer) (Natronomonas pharaonis, UniProt P42196); assay: X-ray crystallography, trapped M intermediate; type: binding; details: active M state, light-induced; space group I212121; 1.9 A; covalent (retinal Schiff base, Lys205)
T1 construct: gene sop2; wild-type NpSRII with truncated transducer NpHtrII residues 1-157; produced in E. coli, reconstituted; 2:2 complex; with Sensory rhodopsin II transducer
T1 sequence (P42196 2-239): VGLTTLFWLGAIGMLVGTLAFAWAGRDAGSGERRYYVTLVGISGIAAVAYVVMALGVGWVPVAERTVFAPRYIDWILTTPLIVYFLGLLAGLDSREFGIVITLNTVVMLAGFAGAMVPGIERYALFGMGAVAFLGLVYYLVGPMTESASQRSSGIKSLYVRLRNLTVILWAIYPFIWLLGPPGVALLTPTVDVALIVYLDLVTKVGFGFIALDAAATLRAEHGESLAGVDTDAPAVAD
T1 sequence (P42259 1-157 partner): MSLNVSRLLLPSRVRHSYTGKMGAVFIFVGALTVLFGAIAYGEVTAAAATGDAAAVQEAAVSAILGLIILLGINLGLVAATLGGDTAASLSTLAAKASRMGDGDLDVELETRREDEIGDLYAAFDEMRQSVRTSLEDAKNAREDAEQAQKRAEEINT

[2] = target: T2, NpSRII/NpHtrII1-135 complex (Natronomonas pharaonis, UniProt P42196); assay: X-ray crystallography; type: binding; details: ground state; covalent (retinal Schiff base, Lys205); retinal isomer not stated separately for this crystal
T2 construct: gene sop2; wild-type NpSRII with truncated transducer NpHtrII residues 1-135; produced in E. coli, reconstituted; 2:2 complex; with Sensory rhodopsin II transducer
T2 sequence (P42196 2-239): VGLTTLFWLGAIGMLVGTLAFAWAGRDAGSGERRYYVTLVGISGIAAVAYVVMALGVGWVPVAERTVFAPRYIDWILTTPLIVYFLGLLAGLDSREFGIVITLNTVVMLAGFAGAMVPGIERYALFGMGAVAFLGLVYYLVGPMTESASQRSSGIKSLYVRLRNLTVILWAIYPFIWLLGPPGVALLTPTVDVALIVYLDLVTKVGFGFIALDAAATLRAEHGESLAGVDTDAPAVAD
T2 sequence (P42259 1-135 partner): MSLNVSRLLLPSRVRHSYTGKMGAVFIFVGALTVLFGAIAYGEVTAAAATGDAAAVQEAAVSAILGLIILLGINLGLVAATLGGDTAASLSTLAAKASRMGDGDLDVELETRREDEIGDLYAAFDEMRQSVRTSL

[3] = target: T1, NpSRII/NpHtrII1-157 complex (sensory rhodopsin II with its cognate transducer); assay: X-ray crystallography; type: binding; details: ground state; space group I212121; 1.9 A; in meso crystals, pH 5.6; covalent (retinal Schiff base, Lys205)
[4] = target: T3, NpSRII/NpHtrII1-135 complex (Natronomonas pharaonis, UniProt P42196); assay: X-ray crystallography; type: binding; details: space group P21212; covalent (retinal Schiff base, Lys205); retinal isomer not stated separately for this crystal
T3 construct: gene sop2; wild-type NpSRII with truncated transducer NpHtrII residues 1-135; produced in E. coli, reconstituted; 2:2 complex; with Sensory rhodopsin II transducer

[5] = target: NpHtrII (Natronomonas pharaonis) (UniProt P42259); details: cited from earlier work
[6] = target: NpHtrII (Natronomonas pharaonis) (UniProt P42259); details: cited from earlier work; remark: listed apart in the source
[7] = target: T4, sensory rhodopsin II from N. pharaonis (NpSRII) (N. pharaonis, UniProt P42196 1-239, retinal bound through a Schiff base (Lys205)); assay: crystal structure; ground state, space group I2_(1)2_(1)2_(1), 1.9 Å; in meso crystallization (monooleoyl), 22 °C, 1 M Na/K phosphate pH 5.6, trehalose; details: both partners purified
T4 construct: sensory rhodopsin II (NpSRII), N. pharaonis, wild type; also called the receptor; source: E. coli, purified, reconstituted into a functional complex, and resolubilized
T4 sequence (looked up): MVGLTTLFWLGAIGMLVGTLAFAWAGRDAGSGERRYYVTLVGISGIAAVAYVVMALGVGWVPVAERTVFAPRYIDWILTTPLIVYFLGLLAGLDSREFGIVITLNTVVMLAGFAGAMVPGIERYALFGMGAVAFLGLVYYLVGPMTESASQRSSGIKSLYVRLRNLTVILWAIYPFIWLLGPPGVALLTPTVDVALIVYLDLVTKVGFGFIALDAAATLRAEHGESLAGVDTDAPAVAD

[8] = target: the molecule itself; assay: as above
[9] = target: T4, sensory rhodopsin II from N. pharaonis …; assay: crystal structure; ground state of the complex with NpHtrII 1-135 (PDB 5JJJ); in meso crystals; space group not tied to this entry in the text (P6_(4) likely); details: both partners purified
[10] = target: T4, sensory rhodopsin II from N. pharaonis …; assay: crystal structure; complex with the G83F mutant, space group P2_(1)2_(1)2, "V"-shape; crystallization conditions the same as for the wild type complex in the P6_(4) space group; details: both partners purified

## CC1=C(/C=C/C(C)=C/C=C/C(C)=C\C=O)C(C)(C)CCC1 [13-cis retinal]
[1]
  X-ray crystallography, trapped M intermediate: the retinal chromophore switches from all-trans conformation to 13-cis

## CC1=C(/C=C/C(C)=C/C=C/C(C)=C/C=O)C(C)(C)CCC1 [all-trans retinal]
[2]
  X-ray crystallography: 5JJJ (NpSRII/HtrII-135 ground state)
[3]
  X-ray crystallography: the retinal chromophore switches from all-trans conformation to 13-cis
[4]
  X-ray crystallography: crystal structure of the NpSRII/NpHtrII1–135-G83F mutant demonstrate different crystal packing

## NpSRII (active state) (from UniProt P42196)
[5]
  Kd: 15 µM

## NpSRII (from UniProt P42196)
[6]
  Kd: 0.1 µM

B1: NpHtrII_(1-157), shortened cognate transducer of NpSRII (domain or fragment, N. pharaonis, UniProt P42259 1-157, looked up)
chain: MSLNVSRLLLPSRVRHSYTGKMGAVFIFVGALTVLFGAIAYGEVTAAAATGDAAAVQEAAVSAILGLIILLGINLGLVAATLGGDTAASLSTLAAKASRMGDGDLDVELETRREDEIGDLYAAFDEMRQSVRTSLEDAKNAREDAEQAQKRAEEINT
notes: NpHtrII, transducer of sensory rhodopsin II, N. pharaonis, residues 1-157 (transmembrane helices TM1 and TM2, HAMP1 and linker); only the transmembrane part is seen in the electron density; also called HtrII-157; the transducer; source: E. coli, purified, reconstituted into a functional complex, and resolubilized
[7]
  binding result: binds
[8]
  binding result: binds

B2: NpHtrII_(1-135), shortened transducer (domain or fragment, N. pharaonis, UniProt P42259 1-135, looked up)
chain: MSLNVSRLLLPSRVRHSYTGKMGAVFIFVGALTVLFGAIAYGEVTAAAATGDAAAVQEAAVSAILGLIILLGINLGLVAATLGGDTAASLSTLAAKASRMGDGDLDVELETRREDEIGDLYAAFDEMRQSVRTSL
notes: source: E. coli, purified, reconstituted into a functional complex, and resolubilized
[9]
  binding result: binds

B3: NpHtrII_(1-135)-G83F mutant (domain or fragment, N. pharaonis, UniProt P42259 1-135, looked up)
chain: MSLNVSRLLLPSRVRHSYTGKMGAVFIFVGALTVLFGAIAYGEVTAAAATGDAAAVQEAAVSAILGLIILLGINLGLVAATLFGDTAASLSTLAAKASRMGDGDLDVELETRREDEIGDLYAAFDEMRQSVRTSL
notes: as for B2
[10]
  binding result: binds
